Experimental findings from patent US20180188270A1, “DIAGNOSTIC TEST FOR ALZHEIMER'S DISEASE BASED ON IDENTIFICATION OF A PROTEOLYTIC PATHWAY” (Health Research, Inc., priority 2015, published 2018) are described below.

One data set addresses T1, FVII (Homo sapiens, UniProt P08709).
T1 construct: purchased Haematologic Technologies HCVII-0030
T1 sequence (P08709 61-466): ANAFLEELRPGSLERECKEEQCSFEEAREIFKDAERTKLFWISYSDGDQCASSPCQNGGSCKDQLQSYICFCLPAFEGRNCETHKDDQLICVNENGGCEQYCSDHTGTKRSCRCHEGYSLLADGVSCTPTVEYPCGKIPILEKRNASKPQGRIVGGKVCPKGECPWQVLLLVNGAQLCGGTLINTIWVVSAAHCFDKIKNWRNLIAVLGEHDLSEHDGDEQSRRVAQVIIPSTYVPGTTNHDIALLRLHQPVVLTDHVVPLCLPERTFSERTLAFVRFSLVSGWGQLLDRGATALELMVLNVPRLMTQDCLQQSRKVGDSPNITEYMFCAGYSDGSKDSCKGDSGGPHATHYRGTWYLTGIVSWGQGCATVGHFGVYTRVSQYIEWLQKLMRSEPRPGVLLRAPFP
The data set is described as follows: hPEPD degradation by FVII with or without TF and/or FIIa. The class given is biochemical. The settings on record: 24 h. The protocol:
(§1) Measurement of in vitro degradation of hPEPD, mSRC and hAβ1-42. To determine whether a blood coagulation factor degrades hPEPD, hPEPD at 90 nM or lower concentrations (10 or 40 nM) was incubated with solvent, 100 nM FIIa, 100 nM FXa, 10 nM FVIIa with or without 10 nM TF, or 10 nM FVII with or without 10 nM TF and/or 100 nM FIIa in PBS in a total volume of 100 μl containing 5 mM CaCl2 for desired times at RT. […] To compare the hPEPD-degrading activities of different plasma samples, 9.2 pmol of hPEPD was incubated with 100 μl of plasma from WT mice or FVII^tTA/tTA mice at RT, with or without FIIa or FXa (10 pmol), and to maximize detection of any activity, all incubations lasted for 24 h. […] To measure remaining hPEPD, the incubated samples were cleared of potential fibrin clots by centrifugation and then analyzed by SDS-PAGE and silver staining (using the LC 6070 kit from Invitrogen), IB or measurement of hPEPD enzymatic activity. hPEPD enzymatic activity was measured using glycyl-proline as a substrate (as described in Zbucka et al., Folia Histochem Cytobiol 2007; 45 Suppl 1: S181-185). The precipitates from each incubated sample were washed with PBS twice and then resuspended in 2.5% SDS (20 μper sample); each solution was mixed with 10 μl loading dye and analyzed for hPEPD by IB, using pure hPEPD as a standard and factor FXIIIa as a binding control, respectively.

The next data set has as its system FX, FII or FVII. The data set is described as follows: Potential activation of FX, FII or FVII by hPEPD (IB). Type of data set: biochemical, human. The conditions noted are these: hPEPD 40 nM, 5 mM CaCl2, RT, 24 h. The protocol: Measurement of Potential Activation of FX, FII or FVII by hPEPD. hPEPD (40 nM) was incubated with FX, FIT or FVII […] in PBS at RT in the presence of 5 mM CaCl2 for 24 h, followed by IB analysis for potential activation/cleavage of each coagulation factor. FXa, FIIa and FVIIa were used as positive controls in the experiments.

Data set [1] relates to plasma coagulation factors FXII, PK, HMWK, FXI, FIX, FX, FII, FI and FVII. The data set is described as follows: Changes in plasma coagulation factors in mice by IB (FI by ELISA). The conditions noted are these: 6 h after i.p. treatment. Type of data set: in vivo, mouse.
Procedure: Animal studies. […] Male mice at 7-8 weeks of age were used, including wild type (WT) mice (C57BL/6), and mice deficient in FXII (C57BL/6-FXII^−/−) or FVII (C57BL/6-FVII^tTA/tTA). WT C57BL/6 mice were purchased from Taconic. C57BL/6-FXII^−/− mice and C57BL/6-FVII^tTA/tTA mice were bred in our own facility and genotyped. […] CCl4 was dissolved in corn oil, whereas all other substances were dissolved in PBS. The vehicle or the test substance was given to mice in 0.1 ml volume per 20 g body weight. Blood was collected from the mice at specific times by cardiac puncture at the time of sacrifice by carbon dioxide, and heart, liver and kidney were also collected from some of the mice. Blood was collected into K3 EDTA-containing tubes (Multivette 600 from Sarstedt), unless specified otherwise. All blood samples were promptly centrifuged to obtain plasma samples.
The plates were washed three times with phosphate buffered saline tween-20 (PBST) and the coated wells were blocked by incubation with 200 μl/well of 1% BSA in PBS for at least 2 h at RT. […] The plates were washed again with PBST, and each well was incubated with a goat anti-rabbit IgG-HRP conjugate (100 μl) for 1 h at RT. After yet another round of wash with PBST, each well was incubated with 100 μl of HRP substrate 3,3′,5,5′-tetramethylbenzedine (Cell Signaling, 7004). Upon adequate color development, 100 μl of stop solution (Cell Signaling, 7002) was added to each well, and absorbance at 450 nm was promptly recorded by a microtiter plate reader. Plasma FI concentration was determined using an assay kit (400-374-130050) from GenWay Biotech, following the manufacturer's instruction.
IB. Tissue samples were mixed with RIPA buffer (25 mM Tris-HCl, pH 7.6, 150 mM NaCl, 1% Nonidet P-40, 1% sodium deoxycholate, 0.1% SDS), supplemented with 2 mM phenylmethanesulfonyl fluoride, a proteinase inhibitor mix (Roche Applied Science) and phosphatase inhibitor Cocktail 2 (Sigma-Aldrich). Tissue samples were stroked in a Dounce homogenizer, and the homogenates were cleared by centrifugation at 12,000×g for 15 min at 4° C. Protein concentrations in all samples were measured by the BCA assay kit. Plasma samples were used without further processing (20 μl per sample). Each sample was mixed with 4× loading dye, heated for 5 min at 95° C. and then resolved by SDS-PAGE (8-12.5%). […] The proteins were transferred to polyvinylidene fluoride membrane, probed with specific antibodies and detected using the ECL Plus Kit (Amersham) or the SuperSignal West Pico Kit (Thermo Scientific).
In the next data set the target is T2, FIIa (Homo sapiens, UniProt P00734).
T2 construct: purchased Haematologic Technologies HCT-0020
The data set is described as follows: hPEPD stability on incubation with FIIa. The conditions noted are these: hPEPD 90 nM, FIIa 100 nM. The class given is biochemical. The method, then:
as §1

Another data set addresses T3, FVIIa (Homo sapiens, UniProt P08709).
T3 construct: purchased Haematologic Technologies HCVIIA-0031 (FVIIa); RTF-0300 (TF)
The data set is described as follows: In vitro degradation by FVIIa with or without TF. Type of data set: biochemical. The conditions noted are these: for hPEPD remaining (enzymatic activity): 60 min. The method, then:
as §1, with “To” for “Measurement of in vitro degradation of hPEPD, mSRC and hAβ1-42. To”
All samples after incubation were resolved by SDS-PAGE and stained by silver.
(§2) Each value is mean±SD (n=3).

A further data set deals with FXII. The data set is described as follows: FXII activation, chromogenic assay. Type of data set: biochemical, human. The protocol:
Measurement of FXII activation. […] FXII activation was followed for 3 h at RT by monitoring the conversion of the chromogenic substrate at 405 nm by a microtiter plate reader.
as §2

The subject of a further data set is plasma Aβ1-42. The data set is described as follows: Plasma Aβ1-42 concentration in mice by ELISA. The class given is in vivo, mouse. The settings on record: FXII−/− mice, CCl4 0.5 g/kg or hPEPD 4 mg/kg i.p., 24 h.

T3 sequence (P13726 33-295 partner, one chain of several): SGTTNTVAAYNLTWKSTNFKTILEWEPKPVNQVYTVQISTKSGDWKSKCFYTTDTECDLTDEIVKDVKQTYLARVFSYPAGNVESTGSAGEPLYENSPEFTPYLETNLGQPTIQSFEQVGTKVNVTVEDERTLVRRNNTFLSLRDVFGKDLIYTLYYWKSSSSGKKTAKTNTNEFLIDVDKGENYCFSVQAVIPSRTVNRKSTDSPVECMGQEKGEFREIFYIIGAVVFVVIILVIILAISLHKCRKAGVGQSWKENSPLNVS
Procedure for plasma Aβ1-42: Animal studies. All animal studies were performed in accordance with protocols approved by the Institutional Animal Care and Use Committee at Roswell Park Cancer Institute. Male mice at 7-8 weeks of age were used, including wild type (WT) mice (C57BL/6), and mice deficient in FXII (C57BL/6-FXII^−/−) or FVII (C57BL/6-FVII^tTA/tTA). WT C57BL/6 mice were purchased from Taconic. C57BL/6-FXII^−/− mice and C57BL/6-FVII^tTA/tTA mice were bred in our own facility and genotyped. […] CCl4 was dissolved in corn oil, whereas all other substances were dissolved in PBS. The vehicle or the test substance was given to mice in 0.1 ml volume per 20 g body weight. Blood was collected from the mice at specific times by cardiac puncture at the time of sacrifice by carbon dioxide, and heart, liver and kidney were also collected from some of the mice. Blood was collected into K3 EDTA-containing tubes (Multivette 600 from Sarstedt), unless specified otherwise. All blood samples were promptly centrifuged to obtain plasma samples.
Measurement of plasma levels of PEPD, SRC, Aβ1-42 and FI. […] The plates were washed three times with phosphate buffered saline tween-20 (PBST) and the coated wells were blocked by incubation with 200 μl/well of 1% BSA in PBS for at least 2 h at RT. After another round of wash with PBST, the plates were incubated with appropriately diluted Aβ1-42 standard, SRC standard or plasma samples (100 μl/well) for 2 h at RT. The plates were then washed with PBST and incubated with an anti-Aβ1-42 rabbit polyclonal antibody (sc-9129) or anti-SRC rabbit monoclonal antibody (2123) at 100 μl/well for 2 h at RT. The plates were washed again with PBST, and each well was incubated with a goat anti-rabbit IgG-HRP conjugate (100 μl) for 1 h at RT. After yet another round of wash with PBST, each well was incubated with 100 μl of HRP substrate 3,3′,5,5′-tetramethylbenzedine (Cell Signaling, 7004). Upon adequate color development, 100 μl of stop solution (Cell Signaling, 7002) was added to each well, and absorbance at 450 nm was promptly recorded by a microtiter plate reader.

B1: hPEPD: recombinant human prolidase (PEPD), 6xHis tagged to the carboxy terminus (protein, UniProt P12955 2-493, looked up)
Xaa-Pro dipeptidase: AAATGPSFWLGNETLKVPLALFALNRQRLCERLRKNPAVQAGSIVVLQGGEETQRYCTDTGVLFRQESFFHWAFGVTEPGCYGVIDVDTGKSTLFVPRLPASHATWMGKIHSKEHFKEKYAVDDVQYVDEIASVLTSQKPSVLLTLRGVNTDSGSVCREASFDGISKFEVNNTILHPEIVECRVFKTDMELEVLRYTNKISSEAHREVMKAVKVGMKEYELESLFEHYCYSRGGMRHSSYTCICGSGENSAVLHYGHAGAPNDRTIQNGDMCLFDMGGEYYCFASDITCSFPANGKFTADQKAVYEAVLRSSRAVMGAMKPGVWWPDMHRLADRIHLEELAHMGILSGSVDAMVQAHLGAVFMPHGLGHFLGIDVHDVGGYPEGVERIDEPGLRSLRTARHLQPGMVLTVEPGIYFIDHLLDEALADPARASFLNREVLQRFRGFGGVRIEEDVVVTDSGIELLTCVPRTVEEIEACMAGCDKAFTPFSGPK
modifications: C-terminal 6xHis tag
notes: recombinant human prolidase (PEPD), 6xHis tagged to the carboxy terminus
On to B1, for which, in the data set with FVII (FIIa 100 nM), the “hPEPD degradation by FVII with or without TF after adding FIIa” value is reported as “caused marked hPEPD degradation”. In the data set with FVII (FVII 10 nM, TF 10 nM), the “proteolysis of hPEPD by FVII with or without TF” value is listed as “showed no proteolytic activity towards hPEPD”. Moreover, the “direct activation of FX, FII or FVII” value in the data set on FX, FII or FVII is “does not directly activate any of these factors”. Also, the “activation/cleavage of plasma coagulation factors” value in data set [1] (FXII−/− mice) is “no activation of HMWK, FXI, PK and FIX, but slight activation of FX, FII and FVII”; in data set [1] (WT mice), “caused cleavage or activation of many coagulation factors”. The “effect of FIIa on hPEPD stability” value with FIIa is on record as “had no effect on hPEPD stability”. Also, the “proteolysis/fragmentation by FVIIa plus TF” value with FVIIa (FVIIa 10 nM plus TF 10 nM, CaCl2-containing PBS, RT) is “caused rapid and extensive hPEPD proteolysis”. Moreover, in the data set with FVIIa (FVIIa 10 nM, no TF), the “degradation by FVIIa in the absence of TF” value is listed as “degraded hPEPD”. For the same molecule, the “hPEPD remaining (enzymatic activity)” value with FVIIa (hPEPD 10 nM, FVIIa 10 nM plus TF 10 nM, RT) was 35.9%; with FVIIa (hPEPD 40 nM, FVIIa 10 nM plus TF 10 nM, RT), 46.3%; in the data set with FVIIa (hPEPD 90 nM, FVIIa 10 nM plus TF 10 nM, RT) it was 52.4%. For the same molecule, the FXII activation result with FXII (FXII 0.97 nM, ZnCl2-containing PBS, RT) was “did not differ in activating FXII”. The “Zn2+ requirement of FXII activation” value in the data set with FXII (with or without ZnCl2 15 μM, IB) is listed as “required Zn^2+”. The “average plasma level of mAβ1-42, increase” value in the data set on plasma Aβ1-42 is on record as “remained unchanged”.
